{"source": "paper doi:10.1101/758797", "about": "(bioRxiv, 2019)", "binders": {"B1": {"name": "NRBF2^MIT as fused in MIT-Fusion (NRBF2 residues 1-159, S113A, S120A) (domain or fragment)", "chain": "MEVMEGPLNLAHQQSRRADRLLAAGKYEEAISCHKKAAAYLSEAMKLTQSEQAHLSLELQRDSHMKQLLLIQERWKRAQREERLKAQQNTDKDAAAHLQTSHKPSAEDAEGQAPLSQKYAPSTEKCLPEIQGIFDRDPDTLLYLLQQKSEPAEPCIGSK"}}, "molecular_target": "VPS15 (human, UniProt Q99570 1-1358)", "sequence (Q99570 whole entry)": "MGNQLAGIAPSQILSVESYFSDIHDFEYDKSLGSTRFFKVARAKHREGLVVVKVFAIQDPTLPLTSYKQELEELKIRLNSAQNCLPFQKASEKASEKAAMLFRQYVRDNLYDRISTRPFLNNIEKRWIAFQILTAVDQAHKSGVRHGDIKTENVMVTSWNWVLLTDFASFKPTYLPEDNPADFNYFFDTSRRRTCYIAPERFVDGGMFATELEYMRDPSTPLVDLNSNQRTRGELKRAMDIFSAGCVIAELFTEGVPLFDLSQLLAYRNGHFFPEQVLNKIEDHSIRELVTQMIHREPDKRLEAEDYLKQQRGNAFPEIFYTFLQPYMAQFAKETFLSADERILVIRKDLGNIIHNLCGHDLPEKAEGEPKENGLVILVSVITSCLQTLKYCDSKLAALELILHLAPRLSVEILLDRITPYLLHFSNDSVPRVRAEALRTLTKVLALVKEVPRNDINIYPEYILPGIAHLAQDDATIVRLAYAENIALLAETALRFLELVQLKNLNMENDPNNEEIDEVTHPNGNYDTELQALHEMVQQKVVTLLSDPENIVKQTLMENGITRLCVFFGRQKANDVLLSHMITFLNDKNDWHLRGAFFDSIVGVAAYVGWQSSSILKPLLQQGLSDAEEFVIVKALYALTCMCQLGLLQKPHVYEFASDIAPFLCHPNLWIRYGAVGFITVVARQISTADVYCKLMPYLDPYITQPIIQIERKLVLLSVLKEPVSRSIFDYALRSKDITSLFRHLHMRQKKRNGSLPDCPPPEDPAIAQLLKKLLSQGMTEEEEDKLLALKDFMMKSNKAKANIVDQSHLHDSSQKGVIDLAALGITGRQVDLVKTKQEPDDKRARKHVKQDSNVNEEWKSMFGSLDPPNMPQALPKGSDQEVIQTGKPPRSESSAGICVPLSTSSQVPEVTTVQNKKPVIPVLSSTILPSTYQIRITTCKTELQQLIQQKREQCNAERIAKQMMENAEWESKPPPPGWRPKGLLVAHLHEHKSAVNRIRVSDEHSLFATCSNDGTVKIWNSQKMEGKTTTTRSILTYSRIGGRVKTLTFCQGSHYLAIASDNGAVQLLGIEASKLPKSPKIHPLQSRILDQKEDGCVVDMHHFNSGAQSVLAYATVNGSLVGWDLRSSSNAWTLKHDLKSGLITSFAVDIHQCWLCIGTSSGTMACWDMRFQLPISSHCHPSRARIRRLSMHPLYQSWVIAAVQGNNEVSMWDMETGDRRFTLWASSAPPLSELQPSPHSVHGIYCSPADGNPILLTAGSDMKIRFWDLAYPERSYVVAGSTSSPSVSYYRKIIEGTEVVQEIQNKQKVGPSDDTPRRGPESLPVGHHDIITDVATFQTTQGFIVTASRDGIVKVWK", "assay": "cryo-EM structure", "data": [{"binder": "B1", "values": [{"measurement": "binding result", "result": "binds"}]}]}
